Assay results published in PMC5413349.

Assays:
[1] = target: human cytoplasmic dynein-1 complex (recombinant, SNAPf tag on the heavy chain) (human) (UniProt Q14204)
[2] = target: human cytoplasmic dynein-1 complex (recombinant, SNAPf tag on the heavy chain) (human) (UniProt Q14204); assay: single-molecule TIRF co-localisation on microtubules; Alexa647-BICD2N (10x) and TMR-dynein (20 nM in the assembly mix, 1 in 2 dilution) with EB1, dynactin (2x) and LIS1 (20x) on dynamic microtubules
[3] = target: native dynactin complex purified from pig brain (pig (purified from pig brain))
[4] = target: microtubules polymerised from porcine tubulin (porcine); assay: single-molecule TIRF microscopy of binding to microtubules; dynein (100 nM in the assembly mix, 1 in 20 dilution) alone or with a 20x or 300x molar excess of LIS1 on immobilised taxol/GMPCPP-stabilised microtubules, without EB1 and dynactin; 2.5 mM ATP

SNAPf::BICD2N (residues 1-400 of mouse Bicaudal-D2 with an N-terminal SNAPf tag), sequence (Q921C5 1-400): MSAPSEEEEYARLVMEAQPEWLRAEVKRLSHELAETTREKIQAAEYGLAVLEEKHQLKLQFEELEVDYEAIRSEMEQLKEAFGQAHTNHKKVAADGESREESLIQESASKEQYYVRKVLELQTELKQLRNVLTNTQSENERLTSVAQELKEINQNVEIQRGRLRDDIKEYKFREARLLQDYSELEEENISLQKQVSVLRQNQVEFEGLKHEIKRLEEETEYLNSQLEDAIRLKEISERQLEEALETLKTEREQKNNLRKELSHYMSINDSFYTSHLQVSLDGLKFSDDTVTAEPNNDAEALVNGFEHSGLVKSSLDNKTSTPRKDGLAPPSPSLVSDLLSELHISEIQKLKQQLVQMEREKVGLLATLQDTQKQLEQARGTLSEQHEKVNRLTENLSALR

Which results are given for “SNAPf::BICD2N (residues 1-400 of mouse Bicaudal-D2 with an N-terminal SNAPf tag) (from UniProt Q921C5 1-400) (domain or fragment)”?
proportion of microtubule-associated dynein complexes in minus end-directed motion with dynactin and BICD2N, without (45%) and with LIS1 (70%) [1]: 70%; percent of plus-end tracking events of TMR-dynein with Alexa647-BICD2N signal [2]: 40%

Which plus-end tracking of Alexa647-dynein on growing microtubules with EB1 and dynactin (TIRF): maximal duration of tracking events [3] does the source give for “human cytoplasmic dynein-1 complex (recombinant, SNAPf tag on the heavy chain) (from UniProt Q14204 1-4646; O43237-1 1-492; P63172 1-113; P63167 1-89; Q9NP97-1 1-96)” here?
The plus-end tracking of Alexa647-dynein on growing microtubules with EB1 and dynactin (TIRF): maximal duration of tracking events was 9 s.

What about the plus-end tracking of Alexa647-dynein on growing microtubules with EB1 and dynactin (TIRF): mean duration of tracking events [3] of the same substance?
The plus-end tracking of Alexa647-dynein on growing microtubules with EB1 and dynactin (TIRF): mean duration of tracking events was 4 s.

And the fold increase of the landing rate on the lattice with a 300-fold molar excess of LIS1 against no LIS1 [4]?
The fold increase of the landing rate on the lattice with a 300-fold molar excess of LIS1 against no LIS1 was 3 fold.
